Data from paper PMC10132805.
Blank lines part the entries; values can stand above or below the substance they belong to.

Key:
[1] = molecular target: V domain of programmed cell death 6-interacting protein (ALIX V) (human) (UniProt Q8WUM4)
[2] = molecular target: FITC - UL56 46-55 (HHV2) (Human herpesvirus 2 (strain HG52) (HHV-2))
[3] = molecular target: programmed cell death 6-interacting protein (ALIX) V domain (human)
[4] = molecular target: FITC - gag 493-502 (HIV1) (Human immunodeficiency virus type 1 group N (isolate YBF30) (HIV-1))
[5] = molecular target: N-terminal domain of clathrin (CLTC NTD) (human) (UniProt Q00610)
N-terminal domain of clathrin (CLTC NTD) (human), sequence (Q00610 whole entry, the tested form may be a part): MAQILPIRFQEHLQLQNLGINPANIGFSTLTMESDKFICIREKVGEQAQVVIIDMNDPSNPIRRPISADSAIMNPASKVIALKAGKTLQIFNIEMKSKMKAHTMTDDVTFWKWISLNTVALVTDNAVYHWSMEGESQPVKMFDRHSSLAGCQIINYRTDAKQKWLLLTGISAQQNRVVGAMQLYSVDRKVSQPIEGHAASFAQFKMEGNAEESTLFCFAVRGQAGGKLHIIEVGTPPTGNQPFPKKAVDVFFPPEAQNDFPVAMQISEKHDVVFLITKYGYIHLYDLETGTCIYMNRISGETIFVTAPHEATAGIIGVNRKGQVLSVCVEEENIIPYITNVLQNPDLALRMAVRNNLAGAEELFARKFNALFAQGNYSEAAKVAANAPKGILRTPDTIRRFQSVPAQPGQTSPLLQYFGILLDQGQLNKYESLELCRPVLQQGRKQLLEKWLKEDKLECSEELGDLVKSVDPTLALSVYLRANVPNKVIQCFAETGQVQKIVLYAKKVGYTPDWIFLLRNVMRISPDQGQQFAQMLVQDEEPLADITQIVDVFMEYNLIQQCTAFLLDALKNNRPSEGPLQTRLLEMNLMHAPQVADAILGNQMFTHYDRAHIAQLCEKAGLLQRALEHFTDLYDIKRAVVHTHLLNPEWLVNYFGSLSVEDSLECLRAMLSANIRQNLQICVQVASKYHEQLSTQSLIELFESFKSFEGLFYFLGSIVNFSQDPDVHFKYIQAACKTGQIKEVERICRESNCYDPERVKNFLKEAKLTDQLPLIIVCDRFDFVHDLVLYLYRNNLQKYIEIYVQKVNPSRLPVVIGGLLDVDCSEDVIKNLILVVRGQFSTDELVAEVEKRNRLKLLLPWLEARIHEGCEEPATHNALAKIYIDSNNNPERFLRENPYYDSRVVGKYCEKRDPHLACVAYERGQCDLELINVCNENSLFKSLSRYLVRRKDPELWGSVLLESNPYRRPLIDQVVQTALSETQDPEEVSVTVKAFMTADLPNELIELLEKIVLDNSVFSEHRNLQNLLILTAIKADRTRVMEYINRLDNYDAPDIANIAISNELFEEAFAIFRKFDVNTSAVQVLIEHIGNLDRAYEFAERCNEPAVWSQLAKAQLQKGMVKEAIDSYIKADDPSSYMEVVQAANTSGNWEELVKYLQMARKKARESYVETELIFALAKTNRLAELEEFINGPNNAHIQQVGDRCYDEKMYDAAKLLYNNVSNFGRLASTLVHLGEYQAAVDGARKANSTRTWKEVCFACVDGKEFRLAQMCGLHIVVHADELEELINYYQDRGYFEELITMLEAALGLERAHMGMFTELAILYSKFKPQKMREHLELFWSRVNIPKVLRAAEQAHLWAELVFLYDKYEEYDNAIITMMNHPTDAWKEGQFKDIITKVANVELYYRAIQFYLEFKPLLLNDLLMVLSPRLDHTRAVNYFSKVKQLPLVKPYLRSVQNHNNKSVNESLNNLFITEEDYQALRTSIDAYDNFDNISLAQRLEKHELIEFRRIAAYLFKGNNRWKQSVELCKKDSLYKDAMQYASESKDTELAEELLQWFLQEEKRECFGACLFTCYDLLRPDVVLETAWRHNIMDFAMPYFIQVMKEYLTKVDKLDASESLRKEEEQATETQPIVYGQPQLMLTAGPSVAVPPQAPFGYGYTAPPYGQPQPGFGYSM

[6] = molecular target: centrosomal protein of 55 kDa EABR domain (CEP55 EABR) (human) (UniProt Q53EZ4)
centrosomal protein of 55 kDa EABR domain (CEP55 EABR) (human), sequence (Q53EZ4 whole entry, the tested form may be a part): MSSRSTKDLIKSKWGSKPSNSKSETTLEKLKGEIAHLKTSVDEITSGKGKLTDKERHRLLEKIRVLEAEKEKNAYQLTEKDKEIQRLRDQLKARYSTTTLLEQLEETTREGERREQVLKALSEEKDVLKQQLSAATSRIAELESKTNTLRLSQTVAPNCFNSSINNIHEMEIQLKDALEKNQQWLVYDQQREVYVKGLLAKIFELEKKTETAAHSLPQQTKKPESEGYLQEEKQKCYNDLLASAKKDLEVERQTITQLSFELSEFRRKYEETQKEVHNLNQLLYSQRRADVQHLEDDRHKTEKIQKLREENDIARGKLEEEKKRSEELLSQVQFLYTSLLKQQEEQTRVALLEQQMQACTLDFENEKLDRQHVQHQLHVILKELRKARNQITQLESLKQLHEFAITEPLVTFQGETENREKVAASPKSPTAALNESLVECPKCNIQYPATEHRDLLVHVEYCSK

[7] = molecular target: FITC - PDCD6IP 797-809 (Human) (Homo Sapiens)
[8] = molecular target: E3 ubiquitin-protein ligase NEDD4 WW2 domain (human)
E3 ubiquitin-protein ligase NEDD4 WW2 domain (human), sequence (P46934 whole entry, the tested form may be a part): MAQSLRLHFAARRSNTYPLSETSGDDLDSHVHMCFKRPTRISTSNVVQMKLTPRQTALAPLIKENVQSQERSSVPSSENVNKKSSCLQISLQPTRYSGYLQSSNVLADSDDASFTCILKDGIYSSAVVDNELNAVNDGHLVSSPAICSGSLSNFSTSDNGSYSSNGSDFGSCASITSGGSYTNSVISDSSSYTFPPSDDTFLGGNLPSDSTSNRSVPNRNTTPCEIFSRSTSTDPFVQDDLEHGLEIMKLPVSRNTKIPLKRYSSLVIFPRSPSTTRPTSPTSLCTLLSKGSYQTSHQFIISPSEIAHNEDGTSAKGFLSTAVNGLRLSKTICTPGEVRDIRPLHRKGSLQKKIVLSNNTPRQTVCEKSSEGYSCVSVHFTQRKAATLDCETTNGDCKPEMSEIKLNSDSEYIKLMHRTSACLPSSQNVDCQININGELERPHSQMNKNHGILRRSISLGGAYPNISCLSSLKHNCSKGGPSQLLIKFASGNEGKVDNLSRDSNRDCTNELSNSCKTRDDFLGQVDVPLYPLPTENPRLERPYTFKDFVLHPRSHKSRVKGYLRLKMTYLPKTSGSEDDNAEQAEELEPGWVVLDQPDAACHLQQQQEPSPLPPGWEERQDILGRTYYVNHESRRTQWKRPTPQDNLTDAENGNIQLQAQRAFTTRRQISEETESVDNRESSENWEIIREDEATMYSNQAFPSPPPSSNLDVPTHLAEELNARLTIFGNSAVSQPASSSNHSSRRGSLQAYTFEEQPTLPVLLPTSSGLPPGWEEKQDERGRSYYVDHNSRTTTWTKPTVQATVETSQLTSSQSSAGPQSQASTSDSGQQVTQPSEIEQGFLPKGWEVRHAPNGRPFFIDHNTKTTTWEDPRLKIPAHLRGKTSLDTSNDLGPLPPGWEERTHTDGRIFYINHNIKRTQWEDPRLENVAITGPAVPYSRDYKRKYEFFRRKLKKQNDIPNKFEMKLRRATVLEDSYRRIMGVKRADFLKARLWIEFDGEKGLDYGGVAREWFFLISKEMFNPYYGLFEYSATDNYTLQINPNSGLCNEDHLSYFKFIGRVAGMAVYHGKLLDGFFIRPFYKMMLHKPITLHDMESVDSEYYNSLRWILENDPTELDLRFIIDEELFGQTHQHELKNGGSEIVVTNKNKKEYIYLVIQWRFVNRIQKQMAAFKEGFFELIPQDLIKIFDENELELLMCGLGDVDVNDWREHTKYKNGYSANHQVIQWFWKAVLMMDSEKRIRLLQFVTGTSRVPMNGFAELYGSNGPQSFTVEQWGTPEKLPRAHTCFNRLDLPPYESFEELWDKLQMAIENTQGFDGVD

[9] = molecular target: E3 ubiquitin-protein ligase NEDD4 WW4 domain (human)
E3 ubiquitin-protein ligase NEDD4 WW4 domain (human), sequence (P46934 whole entry, the tested form may be a part): as above

[10] = molecular target: C terminal domain of polyadenylate-binding protein 1 (human) (UniProt P11940)
C terminal domain of polyadenylate-binding protein 1 (human), sequence (P11940 544-623): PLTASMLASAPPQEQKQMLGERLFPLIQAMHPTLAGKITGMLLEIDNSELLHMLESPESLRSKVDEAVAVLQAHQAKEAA

[11] = molecular target: FITC - ARRB2 370-379 (Human) (Homo Sapiens)

V domain of programmed cell death 6-interacting protein (ALIX V) (human), sequence (Q8WUM4 whole entry): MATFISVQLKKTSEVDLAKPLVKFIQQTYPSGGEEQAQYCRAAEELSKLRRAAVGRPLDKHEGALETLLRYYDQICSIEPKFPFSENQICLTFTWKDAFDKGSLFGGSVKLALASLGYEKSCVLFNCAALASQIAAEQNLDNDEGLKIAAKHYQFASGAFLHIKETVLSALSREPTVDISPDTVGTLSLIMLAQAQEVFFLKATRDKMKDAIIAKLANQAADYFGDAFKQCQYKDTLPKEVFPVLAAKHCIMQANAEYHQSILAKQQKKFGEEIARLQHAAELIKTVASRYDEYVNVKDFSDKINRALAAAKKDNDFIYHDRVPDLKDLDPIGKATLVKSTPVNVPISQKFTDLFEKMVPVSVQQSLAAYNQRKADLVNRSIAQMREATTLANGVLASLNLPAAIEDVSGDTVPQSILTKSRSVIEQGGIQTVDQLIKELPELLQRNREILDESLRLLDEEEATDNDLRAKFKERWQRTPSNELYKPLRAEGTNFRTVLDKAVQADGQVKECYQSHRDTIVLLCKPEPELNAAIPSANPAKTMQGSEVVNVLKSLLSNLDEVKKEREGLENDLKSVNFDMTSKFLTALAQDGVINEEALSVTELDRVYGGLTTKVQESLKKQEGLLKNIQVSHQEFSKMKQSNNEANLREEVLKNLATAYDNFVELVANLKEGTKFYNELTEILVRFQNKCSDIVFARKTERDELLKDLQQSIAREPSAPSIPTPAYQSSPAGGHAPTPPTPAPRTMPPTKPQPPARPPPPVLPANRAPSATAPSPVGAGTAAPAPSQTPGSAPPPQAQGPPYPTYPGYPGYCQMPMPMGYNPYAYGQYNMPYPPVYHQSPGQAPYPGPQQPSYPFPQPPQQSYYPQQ

Substance: Nsp4 119-134 (BAV) (peptide)
Kd [1]: 101 µM

Substance: E3 ubiquitin-protein ligase NEDD4 WW2 domain (domain or fragment)
Kd [2]: 16 µM

Substance: Nsp4_(118-142) (BAV) peptide
fold weaker affinity than the syntenin-2 peptide [3]: > 300 fold

Substance: Nsp4 118-142 (BAV) (peptide)
Kd [1]: 160 µM

Substance: V domain of programmed cell death 6-interacting protein (ALIX V) (from UniProt Q8WUM4 1-868) (domain or fragment)
Kd [4]: 2.6 µM

Substance: Nsp3 1765-1780 (EEEV) (peptide)
Kd [5]: 28 µM

Substance: NP 602-617 (REBOV) (peptide)
Kd [6]: 2.18 µM

Substance: P 177-192 (RABV) (peptide)
Kd [6]: 22.3 µM

Kd [7]: 0.31 µM
Substance: centrosomal protein of 55 kDa EABR domain (CEP55 EABR) (from UniProt Q53EZ4 1-464) (domain or fragment)

Substance: VP40 1-20 (SEBOV) (peptide)
Kd [8]: 22 µM | Kd [9]: 68 µM

Substance: mu-NS 705-720 (MRV1) (peptide)
Kd [5]: 34 µM

Substance: E3 ubiquitin-protein ligase NEDD4 WW4 domain (domain or fragment)
Kd [2]: 82 µM

Substance: RdRp 1840-1855 (SVV) (peptide)
Kd [5]: 800 µM

Substance: N_(2-17) (BeV) peptide
fold weaker affinity than PAIP2(108-123) [10]: 10 fold

Kd [11]: 26 µM
Substance: N-terminal domain of clathrin (CLTC NTD) (from UniProt Q00610 1-1675) (domain or fragment)
